Laboratory results from patent publication US20220119534A1 (DRAGONFLY THERAPEUTICS, published 2022).
“And” between values parts separate entries of the source, which are not always exact repeats. Equal entries are not always repeated. Where two headings read alike, the source gives them in different places. Blank lines part the entries; values can stand above or below the binder they belong to.

How the values were obtained:
[1] = biological target: T1, Cynomolgus CD64 (FcγRI) (cynomolgus monkey, UniProt A0A2K5U901 33-309, Biotinylated and captured on the CAP chip (p-1094); the biotin site is not stated.); experiment: SPR 25C, biotinylated cyno CD64 captured on CAP chip
T1 construct: Bought recombinant receptor; also called cFcγRI; Cynomolgus FcγRI; not shown: The vendor's biotinylation and purification tag (ACRO FCA-C82E8)
T1 sequence (A0A2K5U901 entry or part of it limits assumed): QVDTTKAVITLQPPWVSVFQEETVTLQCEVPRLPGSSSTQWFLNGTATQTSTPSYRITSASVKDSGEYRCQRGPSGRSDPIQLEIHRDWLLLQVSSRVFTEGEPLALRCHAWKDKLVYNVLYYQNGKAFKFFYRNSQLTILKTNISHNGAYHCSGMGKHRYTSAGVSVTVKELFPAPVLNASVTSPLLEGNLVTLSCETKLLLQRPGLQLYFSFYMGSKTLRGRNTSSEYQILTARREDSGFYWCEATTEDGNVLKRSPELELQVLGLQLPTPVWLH

[2] = biological target: T2, Human FcRn (human, UniProt P55899 24-297; P61769 21-119); experiment: SPR 25C, pH 6.0, FcRn on chip, steady state fit
T2 construct: Bought recombinant receptor; also called hFcRn
Method: Recombinant human or cynomolgus monkey (cyno) FcRn was captured on a surface of an SA series S chip at a concentration of 0.25 μg/mL for 1 minute. […] Each FcRn binding experiment consisted of multiple cycles utilizing varying concentrations of analytes. […] 0 nM blank cycle placed at the start of each concentration series and a blank amine coupling modified chip surface lacking FcRn were used for referencing. Each experimental cycle included association, dissociation and regeneration steps. The association step consisted of 60 sec analyte injection and was followed by a 60 sec dissociation step. Surface regeneration (60 sec injection of HBS-EP+ buffer, pH 7.4) completed each kinetic cycle. All steps were executed at a flow rate of 30 μL/min and at 25° C. MBS-EP+ buffer, pH 6.0 was used as a running buffer. The data were fitted to a steady state affinity model with Biacore Insight evaluation software. Chi² (calculated by the software) related to the calculated Rₘₐₓ was used to assess goodness of the fit. All reported values were rounded to one decimal place.

[3] = biological target: T3, Human CD32b (FcγRIIb) (human, UniProt P31994 46-217, limits assumed, biotinylated); experiment: SPR 25C, biotinylated CD32b captured
T3 construct: Bought recombinant receptor; also called hFcγRIIb; CD32b (FcγR2b)
T3 sequence (looked up): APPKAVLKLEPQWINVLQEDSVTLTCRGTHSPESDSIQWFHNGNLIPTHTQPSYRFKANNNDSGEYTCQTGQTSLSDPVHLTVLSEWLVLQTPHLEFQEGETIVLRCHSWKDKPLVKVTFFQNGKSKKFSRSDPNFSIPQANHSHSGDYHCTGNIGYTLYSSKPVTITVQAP

[4] = biological target: T4, Human CLEC12A-His (recombinant, K244 WT) (human, UniProt Q5QGZ9 65-265); experiment: SPR, two-state fit (ka1); control sample
T4 construct: Made in house (Dragonfly Tx); also called hCLEC12A; hCLEC12A-His; not shown: His tag
T4 sequence: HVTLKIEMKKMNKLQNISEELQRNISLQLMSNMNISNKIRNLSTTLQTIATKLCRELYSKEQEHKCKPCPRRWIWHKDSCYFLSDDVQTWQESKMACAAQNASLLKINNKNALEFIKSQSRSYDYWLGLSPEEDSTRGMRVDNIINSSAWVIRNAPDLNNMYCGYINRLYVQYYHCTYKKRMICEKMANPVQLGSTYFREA

[5] = biological target: T4, Human CLEC12A-His (recombinant, K244 WT); experiment: SPR, two-state fit (kd1); control sample
Method: (§1) Briefly, human Fc specific antibodies were covalently immobilized at a density ˜8000-10000 resonance units (RU) on carboxy methyl dextran matrix of a CM5 biosensor chip via amine-coupling chemistry to create an anti-hFc IgG chip. […] Association was monitored for 300 seconds and dissociation was monitored for 600 seconds. Surfaces were regenerated between cycles with three pulses of 10 mM glycine-HCl, pH 1.7 injected for 20 seconds at 100 μl/min. HBS-EP+ (1×) with 0.1 mg/ml BSA was used as running buffer throughout the experiment. Experiments were performed at physiological temperature of 37° C. To obtain kinetic rate constants and overall binding affinity, double-referenced data were fit to a two-state kinetic model using Biacore 8K Insight Evaluation software (Cytiva).

[6] = biological target: T4, Human CLEC12A-His (recombinant, K244 WT); experiment: SPR, two-state fit (ka1); control sample; remark: listed apart in the source
Method: as §1

[7] = biological target: T4, Human CLEC12A-His (recombinant, K244 WT); experiment: SPR, two-state fit; after pH 8, 40C, 2 wks
[8] = biological target: T4, Human CLEC12A-His (recombinant, K244 WT); experiment: SPR, two-state fit; control sample
Method: as §1

[9] = biological target: T5, Human CD16a F158 (human, UniProt P08637 17-208, biotinylated); experiment: SPR, steady state fit; average for AB0192
T5 construct: Bought recombinant receptor; also called hFcγRIIIa F158
T5 sequence (P08637 17-208 limits assumed): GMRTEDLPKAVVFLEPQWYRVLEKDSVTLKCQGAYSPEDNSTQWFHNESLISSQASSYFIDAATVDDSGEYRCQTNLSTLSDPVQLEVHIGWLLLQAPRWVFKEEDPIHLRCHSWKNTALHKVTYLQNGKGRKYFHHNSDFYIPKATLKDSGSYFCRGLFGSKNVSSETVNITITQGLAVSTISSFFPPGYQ

[10] = biological target: T6, Cynomolgus CD16 (cynomolgus monkey, UniProt Q8SPW2 17-208, biotinylated); experiment: SPR, steady state fit; average for AB0192
T6 construct: Bought recombinant receptor; also called cFcγRIII; Cynomolgus FcγRIII
T6 sequence (Q8SPW2 17-208 limits assumed): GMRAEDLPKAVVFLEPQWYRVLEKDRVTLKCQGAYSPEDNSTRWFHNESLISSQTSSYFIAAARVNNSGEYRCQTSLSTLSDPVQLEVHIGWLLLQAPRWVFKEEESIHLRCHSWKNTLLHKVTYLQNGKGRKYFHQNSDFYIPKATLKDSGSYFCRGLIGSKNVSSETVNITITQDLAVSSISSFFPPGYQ

[11] = biological target: T7, Human CD16b (human, UniProt O75015 17-200, limits assumed, biotinylated); experiment: SPR, steady state fit
T7 construct: Bought recombinant receptor; also called hFcγRIIIb
T7 sequence (O75015 17-200 limits assumed): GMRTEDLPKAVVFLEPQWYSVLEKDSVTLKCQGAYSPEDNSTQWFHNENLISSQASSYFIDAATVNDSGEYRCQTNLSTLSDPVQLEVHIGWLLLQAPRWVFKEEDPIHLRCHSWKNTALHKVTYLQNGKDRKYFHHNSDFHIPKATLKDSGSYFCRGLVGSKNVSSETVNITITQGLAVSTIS

[12] = biological target: T8, Human CD64 (human, UniProt P12314 16-288, biotinylated); experiment: SPR, human CD64 captured
T8 construct: Bought recombinant receptor; also called hFcγRI; Human CD64 (FcγRI)
T8 sequence (P12314 16-288 limits assumed): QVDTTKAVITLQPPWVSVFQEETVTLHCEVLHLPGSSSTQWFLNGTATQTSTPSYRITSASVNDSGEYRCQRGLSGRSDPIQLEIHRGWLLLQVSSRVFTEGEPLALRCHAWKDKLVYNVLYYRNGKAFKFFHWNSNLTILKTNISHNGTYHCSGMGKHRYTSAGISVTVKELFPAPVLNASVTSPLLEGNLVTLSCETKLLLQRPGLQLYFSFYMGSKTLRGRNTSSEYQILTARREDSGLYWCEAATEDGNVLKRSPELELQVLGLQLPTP

[13] = biological target: T9, recombinant human CD32b (human, UniProt P31994 46-217, limits assumed, biotinylated); experiment: SPR 25C, steady state
T9 construct: also called FcγRIIb
T9 sequence (looked up): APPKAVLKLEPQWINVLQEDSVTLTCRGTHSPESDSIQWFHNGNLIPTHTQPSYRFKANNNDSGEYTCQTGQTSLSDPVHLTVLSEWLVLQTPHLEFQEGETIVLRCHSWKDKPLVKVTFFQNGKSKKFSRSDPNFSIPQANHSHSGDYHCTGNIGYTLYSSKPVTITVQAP

[14] = biological target: T10, recombinant human CD16b (human, UniProt O75015 17-200, limits assumed, biotinylated); experiment: SPR 25C, steady state
T10 construct: also called FcγRIIIb
T10 sequence (O75015 17-200 limits assumed): as the sequence (O75015 17-200 limits assumed) above

[15] = biological target: T11, recombinant human CLEC12A-His (human, UniProt Q5QGZ9 65-265); experiment: SPR
T11 construct: also called hCLEC12A-His; hCLEC12A
T11 sequence: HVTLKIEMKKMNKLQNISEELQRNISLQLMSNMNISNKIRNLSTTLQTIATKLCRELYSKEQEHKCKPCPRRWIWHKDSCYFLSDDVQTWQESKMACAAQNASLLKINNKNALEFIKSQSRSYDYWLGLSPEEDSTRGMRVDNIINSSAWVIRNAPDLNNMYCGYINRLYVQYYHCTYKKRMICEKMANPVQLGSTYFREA

[16] = biological target: T12, human CLEC12A expressed on cells (human, UniProt Q5QGZ9 1-265); experiment: flow cytometry, hCLEC12A+ Ba/F3
T12 construct: Transduced isogenic cells or endogenous expression on AML cells; also called RMA-hCLEC12A; Ba/F3-hCLEC12A
T12 sequence: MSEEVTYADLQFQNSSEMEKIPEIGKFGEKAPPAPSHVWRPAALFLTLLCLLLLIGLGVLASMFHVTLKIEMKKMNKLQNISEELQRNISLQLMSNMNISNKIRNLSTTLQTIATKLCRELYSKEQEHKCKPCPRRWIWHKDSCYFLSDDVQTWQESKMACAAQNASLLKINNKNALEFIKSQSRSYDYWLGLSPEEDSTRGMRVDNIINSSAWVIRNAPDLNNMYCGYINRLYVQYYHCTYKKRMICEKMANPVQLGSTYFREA

[17] = biological target: T11, recombinant human CLEC12A-His; experiment: SPR 37C, average

Kd [1]: 1.5 nM and 1.8 nM and 1.2 nM
koff [1]: 8.1e-05 s⁻¹ and 9.5e-05 s⁻¹ and 6.6e-05 s⁻¹
kon [1]: 55000 M⁻¹ s⁻¹ and 54000 M⁻¹ s⁻¹
Kd [2]: 1100 nM
Kd [3]: 7100 nM and 5300 nM and 7400 nM
kon [4]: 1.01e+07 M⁻¹ s⁻¹
koff [5]: 0.0476 s⁻¹
kon [6]: 8.87e+06 M⁻¹ s⁻¹
Kd [7]: 0.9 nM
Kd [8]: 1 nM
B1: AB0089 TriNKET (bispecific antibody, human IgG1, kappa)
chain: QLQLQESGPGLVKPSETLSLTCTVSGFSLTNYGLHWIRQPPGKCLEWIGVIWVGGATDYNPSLKSRVTISVDTSKNQFSLKLSSVQAADTAVYYCAKGDYGDTLDYWGQGTLVTVSSGGGGSGGGGSGGGGSGGGGSDIQMTQSPSSLSASVGDRVTITCHASQNINFWLSWYQQKPGKAPKLLIYEASNLHTGVPSRFSGSGSGTDFTLTISSLQPEDFATYYCQQSHSYPLTFGCGTKLEIKGSDKTHTCPPCPAPELLGGPSVFLFPPKPKDTLMISRTPEVTCVVVDVSHEDPEVKFNWYVDGVEVHNAKTKPREEQYNSTYRVVSVLTVLHQDWLNGKEYKCKVSNKALPAPIEKTISKAKGQPREPRVYTLPPCRDELTKNQVSLTCLVKGFYPSDIAVEWESNGQPENNYKTTPPVLVSDGSFTLYSKLTVDKSRWQQGNVFSCSVMHEALHNHYTQKSLSLSPG
heavy: EVQLVESGGGLVKPGGSLRLSCAASGFTFSSYSMNWVRQAPGKGLEWVSSISSSSSYIYYADSVKGRFTISRDNAKNSLYLQMNSLRAEDTAVYYCARGAPIGAAAGWFDPWGQGTLVTVSSASTKGPSVFPLAPSSKSTSGGTAALGCLVKDYFPEPVTVSWNSGALTSGVHTFPAVLQSSGLYSLSSVVTVPSSSLGTQTYICNVNHKPSNTKVDKKVEPKSCDKTHTCPPCPAPELLGGPSVFLFPPKPKDTLMISRTPEVTCVVVDVSHEDPEVKFNWYVDGVEVHNAKTKPREEQYNSTYRVVSVLTVLHQDWLNGKEYKCKVSNKALPAPIEKTISKAKGQPREPQVCTLPPSRDELTENQVSLTCLVKGFYPSDIAVEWESNGQPENNYKTTPPVLDSDGSFFLYSWLTVDKSRWQQGNVFSCSVMHEALHNHYTQKSLSLSPG
light: DIQMTQSPSSVSASVGDRVTITCRASQGISSWLAWYQQKPGKAPKLLIYAASSLQSGVPSRFSGSGSGTDFTLTISSLQPEDFATYYCQQGVSFPRTFGGGTKVEIKRTVAAPSVFIFPPSDEQLKSGTASVVCLLNNFYPREAKVQWKVDNALQSGNSQESVTEQDSKDSTYSLSSTLTLSKADYEKHKVYACEVTHQGLSSPVTKSFNRGEC
notes: F3' format heterodimer of three chains; human IgG1 Fc with EW-RVT and Y349C/S354C mutations; also called AB0089 Lot AB0089-002; CLEC12A TriNKET AB0089

Kd [9]: 680 nM
Kd [10]: 204 nM
Kd [11]: 6800 nM and 6000 nM and 5300 nM
Kd [12]: 6.1 nM and 5.5 nM and 3.5 nM
koff [12]: 0.00029 s⁻¹ and 0.00026 s⁻¹ and 0.00018 s⁻¹
kon [12]: 47000 M⁻¹ s⁻¹ and 52000 M⁻¹ s⁻¹
B2: AB0192 TriNKET (other)
chain: EVQLVESGGGVVQPGGSLRLSCAASGFTFNAFGMHWVRQAPGKCLEWVAFISSGSTSIYYANTVKGRFTISRDNSKNTLYLQMNSLRAEDTAVYYCARDGYPTGGAMDYWGQGTSVTVSSGGGGSGGGGSGGGGSGGGGSDIQMTQSPSSLSASVGDRVTITCKASQDIYNYLSWFQQKPGKAPKPLIYRANILVSGVPSRFSGSGSGQDYTFTISSLQPEDIATYYCLQFDAFPFTFGCGTKLEIKGSDKTHTCPPCPAPELLGGPSVFLFPPKPKDTLMISRTPEVTCVVVDVSHEDPEVKFNWYVDGVEVHNAKTKPREEQYNSTYRVVSVLTVLHQDWLNGKEYKCKVSNKALPAPIEKTISKAKGQPREPRVYTLPPCRDELTKNQVSLTCLVKGFYPSDIAVEWESNGQPENNYKTTPPVLVSDGSFTLYSKLTVDKSRWQQGNVFSCSVMHEALHNHYTQKSLSLSPG
heavy: EVQLVESGGGLVKPGGSLRLSCAASGFTFSSYSMNWVRQAPGKGLEWVSSISSSSSYIYYADSVKGRFTISRDNAKNSLYLQMNSLRAEDTAVYYCARGAPIGAAAGWFDPWGQGTLVTVSSASTKGPSVFPLAPSSKSTSGGTAALGCLVKDYFPEPVTVSWNSGALTSGVHTFPAVLQSSGLYSLSSVVTVPSSSLGTQTYICNVNHKPSNTKVDKKVEPKSCDKTHTCPPCPAPELLGGPSVFLFPPKPKDTLMISRTPEVTCVVVDVSHEDPEVKFNWYVDGVEVHNAKTKPREEQYNSTYRVVSVLTVLHQDWLNGKEYKCKVSNKALPAPIEKTISKAKGQPREPQVCTLPPSRDELTENQVSLTCLVKGFYPSDIAVEWESNGQPENNYKTTPPVLDSDGSFFLYSWLTVDKSRWQQGNVFSCSVMHEALHNHYTQKSLSLSPG
light: DIQMTQSPSSVSASVGDRVTITCRASQGISSWLAWYQQKPGKAPKLLIYAASSLQSGVPSRFSGSGSGTDFTLTISSLQPEDFATYYCQQGVSFPRTFGGGTKVEIKRTVAAPSVFIFPPSDEQLKSGTASVVCLLNNFYPREAKVQWKVDNALQSGNSQESVTEQDSKDSTYSLSSTLTLSKADYEKHKVYACEVTHQGLSSPVTKSFNRGEC
notes: the condition stands under assay; also called AB0192 Lot AB0192-005

Kd [13]: 7200 nM and 6100 nM and 6900 nM
Kd [14]: 7600 nM and 7200 nM and 8600 nM and 6500 nM
Kd [15]: 0.8 nM
EC50 [16]: 14.4 nM
Max MFI [16]: 50200 MFI
Kd [17]: 0.57 nM
koff [17]: 0.000494 s⁻¹
kon [17]: 844000 M⁻¹ s⁻¹
B3: F3'-1602 TriNKET (other)
chain: QLQLQESGPGLVKPSETLSLTCTVSGFSLTNYGLHWIRQPPGKCLEWIGVIWSGGKTDYNPSLKSRVTISKDTSKNQFSLKLSSVQAADTAVYYCAKYDYDDSLDYWGQGTLVTVSSGGGGSGGGGSGGGGSGGGGSDIQMTQSPSSLSASVGDRVTITCHASQNINFWLSWYQQKPGKAPKLLIYEASNLHTGVPSRFSGSGSGTRFTLTISSLQPEDIATYYCQQSHSYPLTFGCGTKLEIKGSDKTHTCPPCPAPELLGGPSVFLFPPKPKDTLMISRTPEVTCVVVDVSHEDPEVKFNWYVDGVEVHNAKTKPREEQYNSTYRVVSVLTVLHQDWLNGKEYKCKVSNKALPAPIEKTISKAKGQPREPRVYTLPPCRDELTKNQVSLTCLVKGFYPSDIAVEWESNGQPENNYKTTPPVLVSDGSFTLYSKLTVDKSRWQQGNVFSCSVMHEALHNHYTQKSLSLSPG
heavy: EVQLVESGGGLVKPGGSLRLSCAASGFTFSSYSMNWVRQAPGKGLEWVSSISSSSSYIYYADSVKGRFTISRDNAKNSLYLQMNSLRAEDTAVYYCARGAPIGAAAGWFDPWGQGTLVTVSSASTKGPSVFPLAPSSKSTSGGTAALGCLVKDYFPEPVTVSWNSGALTSGVHTFPAVLQSSGLYSLSSVVTVPSSSLGTQTYICNVNHKPSNTKVDKKVEPKSCDKTHTCPPCPAPELLGGPSVFLFPPKPKDTLMISRTPEVTCVVVDVSHEDPEVKFNWYVDGVEVHNAKTKPREEQYNSTYRVVSVLTVLHQDWLNGKEYKCKVSNKALPAPIEKTISKAKGQPREPQVCTLPPSRDELTENQVSLTCLVKGFYPSDIAVEWESNGQPENNYKTTPPVLDSDGSFFLYSWLTVDKSRWQQGNVFSCSVMHEALHNHYTQKSLSLSPG
light: DIQMTQSPSSVSASVGDRVTITCRASQGISSWLAWYQQKPGKAPKLLIYAASSLQSGVPSRFSGSGSGTDFTLTISSLQPEDFATYYCQQGVSFPRTFGGGTKVEIKRTVAAPSVFIFPPSDEQLKSGTASVVCLLNNFYPREAKVQWKVDNALQSGNSQESVTEQDSKDSTYSLSSTLTLSKADYEKHKVYACEVTHQGLSSPVTKSFNRGEC
notes: CLEC12A scFv-Fc, NKG2D A49MI Fab-Fc, human IgG1 Fc; also called AB0237
